Patent publication US20260176621A1, “Metabolically Stabilized Carbohydrate Targeting Ligands For Oligonucleotide Conjugates” (Arrowhead Pharmaceuticals, Inc., priority 2023, published 2026)
Values joined by “and” are separate entries in the source; they are usually repeats but may differ in a detail not shown here. Equal values may be shown once.

Legend:
[1] = system: ANGPTL3; assay: Serum ANGPTL3 protein by ELISA after single SC dose in cynomolgus monkeys (Example 4); assay type: in vivo, cynomolgus macaque (Macaca fascicularis); parameters: key to Avg cANGPTL3 normalized to pre-treatment and control: ratio to animal's pre-dose geometric mean, then to saline group mean
Experimental: (§1) Multimeric (dimer) RNAi agent conjugates that included metabolically stabilized NAG targeting ligands were evaluated for gene silencing activity in cynomolgus macaque (Macaca fascicularis) primates (referred to herein as “cynos”). Each of the multimeric RNAi agent conjugates evaluated included one RNAi agent of the conjugate having sufficient complementarity with the mouse Angiopoietin-like 3 (ANGPTL3) gene transcript, and a second RNAi agent having sufficient complementarity with the mouse Factor 12 (FXII) gene transcript. As discussed in more detail below, both FXII and ANGPTL3 gene expression levels were assessed.
(§2) At day 1, male cynos were given a single subcutaneous administration of 0.3 mL/kg animal weight (20 mg/mL concentration) containing 6.0 mg/kg (mpk) of a multimeric RNAi agent conjugate formulated in isotonic saline, or 3.0 mg/kg of two separate RNAi conjugates, according to the following Table 3.
(§3) Three (3) cynos were dosed in each Group (n=3). Serum samples were taken on days −14, −7, and day 1 (pre-dose). Serum was then collected on days 8, 15, 22, 29, 36 43, 50, 57, 64, 71, 78, 98, 106, 120, 133, 148, and 162.
(§4) ANGPTL3 protein levels in serum were measured by ELISA assay (R&D Systems), according to the manufacturer's recommendations. FXII protein levels in serum were measured by ELISA assay (R&D Systems), according to the manufacturer's recommendations. The ANGPTL3 protein levels and FXII protein levels for each animal were normalized. For normalization, the level of ANGPTL3 protein or FXII protein, respectively, for each animal at a time point, was divided by the geometric mean of pre-treatment level of expression in that animal (in this case at days −14, −7 and 1 (pre-dose)) to determine the ratio of expression “normalized to pre-treatment.” Expression at a specific time point was then normalized to the saline control group by dividing the “normalized to pre-treatment” ratio for an individual animal by the mean “normalized to pretreatment” ratio of all […] in the saline control group.

[2] = system: FXII; assay: Serum FXII protein by ELISA after single SC dose in cynomolgus monkeys (Example 4); assay type: in vivo, cynomolgus macaque (Macaca fascicularis); parameters: key to Avg cFXII normalized to pre-treatment and control: ratio to animal's pre-dose geometric mean, then to saline group mean
Experimental: as §1, §2, §3, §4

[3] = Day 8, single SC dose day 1, 6.0 mg/kg (Group 1: 3.0+3.0 mg/kg)
[4] = Day 15, single SC dose day 1, 6.0 mg/kg (Group 1: 3.0+3.0 mg/kg)
[5] = Day 22, single SC dose day 1, 6.0 mg/kg (Group 1: 3.0+3.0 mg/kg)
[6] = Day 29, single SC dose day 1, 6.0 mg/kg (Group 1: 3.0+3.0 mg/kg)
[7] = Day 36, single SC dose day 1, 6.0 mg/kg (Group 1: 3.0+3.0 mg/kg)
[8] = Day 43, single SC dose day 1, 6.0 mg/kg (Group 1: 3.0+3.0 mg/kg)
[9] = Day 50, single SC dose day 1, 6.0 mg/kg (Group 1: 3.0+3.0 mg/kg)
[10] = Day 57, single SC dose day 1, 6.0 mg/kg (Group 1: 3.0+3.0 mg/kg)
[11] = Day 64, single SC dose day 1, 6.0 mg/kg (Group 1: 3.0+3.0 mg/kg)
[12] = Day 71, single SC dose day 1, 6.0 mg/kg (Group 1: 3.0+3.0 mg/kg)
[13] = Day 78, single SC dose day 1, 6.0 mg/kg (Group 1: 3.0+3.0 mg/kg)
[14] = Day 98, single SC dose day 1, 6.0 mg/kg (Group 1: 3.0+3.0 mg/kg)
[15] = Day 106, single SC dose day 1, 6.0 mg/kg (Group 1: 3.0+3.0 mg/kg)
[16] = Day 120, single SC dose day 1, 6.0 mg/kg (Group 1: 3.0+3.0 mg/kg)
[17] = Day 133, single SC dose day 1, 6.0 mg/kg (Group 1: 3.0+3.0 mg/kg)
[18] = Day 148, single SC dose day 1, 6.0 mg/kg (Group 1: 3.0+3.0 mg/kg)
[19] = Day 162, single SC dose day 1, 6.0 mg/kg (Group 1: 3.0+3.0 mg/kg)

Molecule	Avg cANGPTL3 normalized to pre-treatment and control [1, 3]	Avg cANGPTL3 normalized to pre-treatment and control [1, 4]	Avg cANGPTL3 normalized to pre-treatment and control [1, 5]	cANGPTL3 knockdown [1, 5]	Avg cANGPTL3 normalized to pre-treatment and control [1, 6]	Avg cANGPTL3 normalized to pre-treatment and control [1, 7]	Avg cANGPTL3 normalized to pre-treatment and control [1, 8]	Avg cANGPTL3 normalized to pre-treatment and control [1, 9]	Avg cANGPTL3 normalized to pre-treatment and control [1, 10]	Avg cANGPTL3 normalized to pre-treatment and control [1, 11]	Avg cANGPTL3 normalized to pre-treatment and control [1, 12]	Avg cANGPTL3 normalized to pre-treatment and control [1, 13]	Avg cANGPTL3 normalized to pre-treatment and control [1, 14]	Avg cANGPTL3 normalized to pre-treatment and control [1, 15]	cANGPTL3 knockdown [1, 15]	Avg cANGPTL3 normalized to pre-treatment and control [1, 16]	Avg cANGPTL3 normalized to pre-treatment and control [1, 17]	Avg cFXII normalized to pre-treatment and control [2, 3]	Avg cFXII normalized to pre-treatment and control [2, 4]	Avg cFXII normalized to pre-treatment and control [2, 5]	further results
AD14216: multimeric (dimer) FXII-ANGPTL3 RNAi agent conjugate with NAG37s ligand, not metabolically stabilized, SEQ ID NO 5-7 (nucleic acid, NAG37s ligand conjugate; modified_base 1 OTHER; 5'-cyclopropyl phosphonate-2'-O-methyluridine; modified_base 1^2 OTHER; phosphorothioate linkage; modified_base 2 OTHER; 2'-fluorouridine; modified_base 2^3 OTHER; modified_base 3 cm; modified_base 3^4 OTHER; modified_base 4 OTHER; 2'-fluoroadenosine; modified_base 5 OTHER; 2'-O-methyladenosine; modified_base 6 OTHER; 2'-fl; phosphoro) chain 1: UUCAAAGCACUUUAUUGAG chain 2: UUGAGUUGAGUUCAAGUGA chain 3: UCACUUGAACUCAACUCAACUCAAUAAAGUGCUUUGAA	0.442	0.362	0.339	approximately 66%	0.403	0.369	0.394	0.560	0.622	0.590	0.641	0.603	0.666	0.944	no meaningful knockdown	1.128	1.129	0.481	0.320	0.222	cFXII knockdown [2, 5]: approximately 78%; Avg cFXII normalized to pre-treatment and control [2, 6]: 0.179; Avg cFXII normalized to pre-treatment and control [2, 7]: 0.224; Avg cFXII normalized to pre-treatment and control [2, 8]: 0.237; Avg cFXII normalized to pre-treatment and control [2, 9]: 0.130; Avg cFXII normalized to pre-treatment and control [2, 10]: 0.194; Avg cFXII normalized to pre-treatment and control [2, 11]: 0.184; Avg cFXII normalized to pre-treatment and control [2, 12]: 0.429; Avg cFXII normalized to pre-treatment and control [2, 13]: 0.491; Avg cFXII normalized to pre-treatment and control [2, 14]: 0.592; cFXII knockdown [2, 14]: approximately 41%; Avg cFXII normalized to pre-treatment and control [2, 15]: 0.520; Avg cFXII normalized to pre-treatment and control [2, 16]: 0.567; Avg cFXII normalized to pre-treatment and control [2, 17]: 0.784; Avg cFXII normalized to pre-treatment and control [2, 18]: 0.589; Avg cFXII normalized to pre-treatment and control [2, 19]: 0.728
AD14217: multimeric (dimer) FXII-ANGPTL3 RNAi agent conjugate with metabolically stabilized NAG42s ligand, SEQ ID NO 8-10 (nucleic acid, NAG42s ligand conjugate; modified_base 1 OTHER; 5'-cyclopropyl phosphonate-2'-O-methyluridine; modified_base 1^2 OTHER; phosphorothioate linkage; modified_base 2 OTHER; 2'-fluorouridine; modified_base 2^3 OTHER; modified_base 3 cm; modified_base 3^4 OTHER; modified_base 4 OTHER; 2'-fluoroadenosine; modified_base 5 OTHER; 2'-O-methyladenosine; modified_base 6 OTHER; 2'-fl; phosphoro) chain 1: UUCAAAGCACUUUAUUGAG chain 2: UUGAGUUGAGUUCAAGUGA chain 3: UCACUUGAACUCAACUCAACUCAAUAAAGUGCUUUGAA	0.361	0.288	0.194	approximately 81%	0.261	0.246	0.272	0.327	0.456	0.548	0.521	0.505	0.490	0.777 and 0.770	approximately 33%	0.943	0.892	0.430	0.230	0.219	cFXII knockdown [2, 5]: approximately 78%; Avg cFXII normalized to pre-treatment and control [2, 6]: 0.095; Avg cFXII normalized to pre-treatment and control [2, 7]: 0.126; Avg cFXII normalized to pre-treatment and control [2, 8]: 0.103; Avg cFXII normalized to pre-treatment and control [2, 9]: 0.104; Avg cFXII normalized to pre-treatment and control [2, 10]: 0.065; Avg cFXII normalized to pre-treatment and control [2, 11]: 0.093; Avg cFXII normalized to pre-treatment and control [2, 12]: 0.211; Avg cFXII normalized to pre-treatment and control [2, 13]: 0.230; Avg cFXII normalized to pre-treatment and control [2, 14]: 0.316; cFXII knockdown [2, 14]: approximately 69%; Avg cFXII normalized to pre-treatment and control [2, 15]: 0.316; Avg cFXII normalized to pre-treatment and control [2, 16]: 0.443; Avg cFXII normalized to pre-treatment and control [2, 17]: 0.536; Avg cFXII normalized to pre-treatment and control [2, 18]: 0.567; Avg cFXII normalized to pre-treatment and control [2, 19]: 0.468
AD14218: multimeric (dimer) FXII-ANGPTL3 RNAi agent conjugate with metabolically stabilized NAG52s ligand, SEQ ID NO 11-13 (nucleic acid, NAG52s ligand conjugate; modified_base 1 OTHER; 5'-cyclopropyl phosphonate-2'-O-methyluridine; modified_base 1^2 OTHER; phosphorothioate linkage; modified_base 2 OTHER; 2'-fluorouridine; modified_base 2^3 OTHER; modified_base 3 cm; modified_base 3^4 OTHER; modified_base 4 OTHER; 2'-fluoroadenosine; modified_base 5 OTHER; 2'-O-methyladenosine; modified_base 6 OTHER; 2'-fl; phosphoro) chain 1: UUCAAAGCACUUUAUUGAG chain 2: UUGAGUUGAGUUCAAGUGA chain 3: UCACUUGAACUCAACUCAACUCAAUAAAGUGCUUUGAA	0.252	0.238	0.137	~86%	0.161	0.186	0.164	0.212	0.245	0.352	0.328	0.354	0.425	0.565	approximately 45%	0.637	0.672	0.299	0.201	0.156	cFXII knockdown [2, 5]: approximately 85%; Avg cFXII normalized to pre-treatment and control [2, 6]: 0.077; Avg cFXII normalized to pre-treatment and control [2, 7]: 0.058; Avg cFXII normalized to pre-treatment and control [2, 8]: 0.058; Avg cFXII normalized to pre-treatment and control [2, 9]: 0.032; Avg cFXII normalized to pre-treatment and control [2, 10]: 0.056; Avg cFXII normalized to pre-treatment and control [2, 11]: 0.038; Avg cFXII normalized to pre-treatment and control [2, 12]: 0.094; Avg cFXII normalized to pre-treatment and control [2, 13]: 0.109; Avg cFXII normalized to pre-treatment and control [2, 14]: 0.139; cFXII knockdown [2, 14]: approximately 86%; Avg cFXII normalized to pre-treatment and control [2, 15]: 0.158; Avg cFXII normalized to pre-treatment and control [2, 16]: 0.194; Avg cFXII normalized to pre-treatment and control [2, 17]: 0.213; Avg cFXII normalized to pre-treatment and control [2, 18]: 0.263; cFXII inhibition ([2]; Day 162, single SC dose day 1, 6.0 mg/kg): more than 70%; Avg cFXII normalized to pre-treatment and control [2, 19]: 0.285
